# Assay results published in the RNAGym collection of RNA variant scans (doi:10.7554/elife.80360).
# B1: HDV Ribozyme (parent)
# chain: GGCCGGCAUGGUCCCAGCCUCCUCGCUGGCGCCGGCUGGGCAACAUUCCGAGGGGACCGUCCCCUCGGUAAUGGCGAAUGGGACCCA
# Variants of: B1
# Experiment: self-cleavage, relative activity (ratio to wild type); higher = more cleavage; co-transcriptional
row,Variant,self-cleavage
1,GGCCUGCAUGGUCCCAGCCUCCUCGCUGGCGCCGGCUGGGCAACAUUCCGAGGGGACCGUCCCCUCGGUAGUGGCGAAUGGGACCCA [G5U A71G],0.361
2,GGCCUGCAUGGUCCCAGCCUCCUCGCUGGCGCCGGCUGGGCAGCAUUCCGAGGGGACCGUCCCCUCGGUAAUGGCGAAUGGGACCCA [G5U A43G],0
3,GGCCUGCAUGGUCCCAGCCUCCUCGCUGGCGCCGGCUGGGCAUCAUUCCGAGGGGACCGUCCCCUCGGUAAUGGCGAAUGGGACCCA [G5U A43U],0.0978
4,GGCCUGCAUGGUCCCAGCCUCCUCGCUGGCGCCGGCUGGGCAACAUUUCGAGGGGACCGUCCCCUCGGUAAUGGCGAAUGGGACCCA [G5U C48U],0.346
5,GGCCCGCAUGGUCCCAGCCUCCUCGCUGGCGCCGGCUGGGCAACAUUCCGAGGGGACCGGCCCCUCGGUAAUGGCGAAUGGGACCCA [G5C U60G],0.185
6,GGCCCGCAUUGUCCCAGCCUCCUCGCUGGCGCCGGCUGGGCAACAUUCCGAGGGGACCGUCCCCUCGGUAAUGGCGAAUGGGACCCA [G5C G10U],0.0489
7,GGCCCGCAUCGUCCCAGCCUCCUCGCUGGCGCCGGCUGGGCAACAUUCCGAGGGGACCGUCCCCUCGGUAAUGGCGAAUGGGACCCA [G5C G10C],0
8,GGCCUGCAUGGUCCCAGCCUCCUCGCUGGCGCCGGCUGGGGAACAUUCCGAGGGGACCGUCCCCUCGGUAAUGGCGAAUGGGACCCA [G5U C41G],0.111
9,GGCCUGCAUGGUCCCAGCCUCCUCGCUGGCGCCGGCUGGGUAACAUUCCGAGGGGACCGUCCCCUCGGUAAUGGCGAAUGGGACCCA [G5U C41U],0.415
10,GGCCUGCAUGGUCCCAGCCUCCUCGCUGGCGCCGGCUGGGCAACAUUCCGAGGGGACCGUCCCCUCGGUAAUGGCGAAUGGGAACCA [G5U C84A],0.302
11,GGCCCGCAUGGUCCCAGCCUCCUCGCUGGCGCCGGCUGGGCAACAUUCCGAGGGGACCGUCCCCUCGGCAAUGGCGAAUGGGACCCA [G5C U69C],0.396
12,GGCCCGCAUGGUCCCAGCCUCCUCGCUGGCGCCGGCUGGGCAACAUACCGAGGGGACCGUCCCCUCGGUAAUGGCGAAUGGGACCCA [G5C U47A],0.158
13,GGCCCGCAUGGUCCCAGCCUCCUCGCUGGCGCCGGCUGGGCAACAUUCCGAGGGGACCGUCCCCUCGGUAAUGGCGAAGGGGACCCA [G5C U79G],0
14,GGCCCGCAUGGUCCCAGCCUCCUCGCUGGCGCCGGCUUGGCAACAUUCCGAGGGGACCGUCCCCUCGGUAAUGGCGAAUGGGACCCA [G5C G38U],0
15,GGCCUGCAUGGUCCCAGCCUCCUCGCUGGCGCCGGCUGGGCAAUAUUCCGAGGGGACCGUCCCCUCGGUAAUGGCGAAUGGGACCCA [G5U C44U],0.369
16,GGCCCGCAUGGUCCCAGCCUCCUCGCUGGCGCCGGCUGGGCAACAUUCCGAGCGGACCGUCCCCUCGGUAAUGGCGAAUGGGACCCA [G5C G53C],0.237

row,Variant,self-cleavage
1,GGCCCGCAUGGUCCCAGCCUCCUCGCUGGCGCCGGCUGGGCAACAUUCCGAGGGCACCGUCCCCUCGGUAAUGGCGAAUGGGACCCA [G5C G55C],0.0898
2,GGCCUGAAUGGUCCCAGCCUCCUCGCUGGCGCCGGCUGGGCAACAUUCCGAGGGGACCGUCCCCUCGGUAAUGGCGAAUGGGACCCA [G5U C7A],0.566
3,GGCCUGCCUGGUCCCAGCCUCCUCGCUGGCGCCGGCUGGGCAACAUUCCGAGGGGACCGUCCCCUCGGUAAUGGCGAAUGGGACCCA [G5U A8C],0.0875
4,GGCCCGCAUGGUCCCAGCCUCCUCGCUGGCGCCGGCUGGGCAACAUUCCGAGGGGACCGUCCCCUCGGUAAUUGCGAAUGGGACCCA [G5C G73U],0.0504
5,GGCCCGCAUGGUCCCAGCCUCCUCGCUGGCGCCGGCUGGGCAACAUUCCGAGGGGACCGUCCCCUCGUUAAUGGCGAAUGGGACCCA [G5C G68U],0.0615
6,GGCCCGCAAGGUCCCAGCCUCCUCGCUGGCGCCGGCUGGGCAACAUUCCGAGGGGACCGUCCCCUCGGUAAUGGCGAAUGGGACCCA [G5C U9A],0.138
7,GGCCCGCAUGGUCCCAGCCUCCUCGCUGACGCCGGCUGGGCAACAUUCCGAGGGGACCGUCCCCUCGGUAAUGGCGAAUGGGACCCA [G5C G29A],0.147
8,GGCCCGCAUGGUCCCAGCCUCCUCGCUGGCGCCGGCUGGGCAACAUUCCGAGGGGACCGUCCCCUCGGUAAUGGCGAAUGAGACCCA [G5C G81A],0.104
9,GGCCCGCAUGGUCCCAGCCUCCUCGCUGGCGCCGGCGGGGCAACAUUCCGAGGGGACCGUCCCCUCGGUAAUGGCGAAUGGGACCCA [G5C U37G],0.111
10,GGCCCGCAUGGUCCCAGCCUCCUCGCUGGCACCGGCUGGGCAACAUUCCGAGGGGACCGUCCCCUCGGUAAUGGCGAAUGGGACCCA [G5C G31A],0.0755
11,GGCCCGCAUGGUCCCAGCCUCCUCGCUGGCCCCGGCUGGGCAACAUUCCGAGGGGACCGUCCCCUCGGUAAUGGCGAAUGGGACCCA [G5C G31C],0.0519
12,GGCCUGCAUGGUCCCAGCCUCCUCGCUGGCGCCGGCUGGGCAACGUUCCGAGGGGACCGUCCCCUCGGUAAUGGCGAAUGGGACCCA [G5U A45G],0.692
13,GGCCUGCAUGGUCCCAGCCUCCUCGCUGGCGCCGGCUGGGCAACCUUCCGAGGGGACCGUCCCCUCGGUAAUGGCGAAUGGGACCCA [G5U A45C],0.0875
14,GGCCUGCAUGGUCCCAGCCUCCUCGCUGGCGCCGGCUGGGCAACAUUCCGAGGGGACCGUCCCCUCGGUAAUGGCGAUUGGGACCCA [G5U A78U],0.0723
15,GGCCUGCAUGGUCCCAGCCUCCUCGCUGGCGCCGGCUGGGCAACAUUCCGAGGGGACCGUCCCCUCGGUAAUGGCGACUGGGACCCA [G5U A78C],0.185
16,GGCCUGCAUGGUCCCAGCCUCCUCGCUGGCGCCGGCUGGGCAACAUUCCGAGGGGACCGUCCCCUCGGUAAUGGCGAAUGGGACCCC [G5U A87C],0.277
